The text below walks through data of IntAct's records for PubMed 15467741.

B1: Merlin (Homo sapiens), P35240-1 (parent)
chain: MAGAIASRMSFSSLKRKQPKTFTVRIVTMDAEMEFNCEMKWKGKDLFDLVCRTLGLRETWFFGLQYTIKDTVAWLKMDKKVLDHDVSKEEPVTFHFLAKFYPENAEEELVQEITQHLFFLQVKKQILDEKIYCPPEASVLLASYAVQAKYGDYDPSVHKRGFLAQEELLPKRVINLYQMTPEMWEERITAWYAEHRGRARDEAEMEYLKIAQDLEMYGVNYFAIRNKKGTELLLGVDALGLHIYDPENRLTPKISFPWNEIRNISYSDKEFTIKPLDKKIDVFKFNSSKLRVNKLILQLCIGNHDLFMRRRKADSLEVQQMKAQAREEKARKQMERQRLAREKQMREEAERTRDELERRLLQMKEEATMANEALMRSEETADLLAEKAQITEEEAKLLAQKAAEAEQEMQRIKATAIRTEEEKRLMEQKVLEAEVLALKMAEESERRAKEADQLKQDLQEAREAERRAKQKLLEIATKPTYPPMNPIPAPLPPDIPSFNLIGDSLSFDFKDTDMKRLSMEIEKEKVEYMEKSKHLQEQLNELKTEIEALKLKERETALDILHNENSDRGGSSKHNTIKKLTLQSAKSRVAFFEEL
partner: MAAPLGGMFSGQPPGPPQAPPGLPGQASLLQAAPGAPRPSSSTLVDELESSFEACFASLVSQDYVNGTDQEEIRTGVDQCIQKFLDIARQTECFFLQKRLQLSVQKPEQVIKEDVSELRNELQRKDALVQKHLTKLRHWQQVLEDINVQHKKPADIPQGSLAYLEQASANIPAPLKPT
B2: Merlin (Homo sapiens), P35240-3 (parent)
chain: MAGAIASRMSFSSLKRKQPKTFTVRIVTMDAEMEFNCEMKWKGKDLFDLVCRTLGLRETWFFGLQYTIKDTVAWLKMDKKVLDHDVSKEEPVTFHFLAKFYPENAEEELVQEITQHLFFLQVKKQILDEKIYCPPEASVLLASYAVQAKYGDYDPSVHKRGFLAQEELLPKRVINLYQMTPEMWEERITAWYAEHRGRARDEAEMEYLKIAQDLEMYGVNYFAIRNKKGTELLLGVDALGLHIYDPENRLTPKISFPWNEIRNISYSDKEFTIKPLDKKIDVFKFNSSKLRVNKLILQLCIGNHDLFMRRRKADSLEVQQMKAQAREEKARKQMERQRLAREKQMREEAERTRDELERRLLQMKEEATMANEALMRSEETADLLAEKAQITEEEAKLLAQKAAEAEQEMQRIKATAIRTEEEKRLMEQKVLEAEVLALKMAEESERRAKEADQLKQDLQEAREAERRAKQKLLEIATKPTYPPMNPIPAPLPPDIPSFNLIGDSLSFDFKDTDMKRLSMEIEKEKVEYMEKSKHLQEQLNELKTEIEALKLKERETALDILHNENSDRGGSSKHNTIKKPQAQGRRPICI
partner: B1 partner

One experiment covers variants of B1. The settings on record: with med28_human MED28, Q9H204.
As to S518A, the “effect of a mutation on the interaction” value is on record as “increasing interaction”.

Variants of B2 are the subject of the next experiment. The following applies: with med28_human MED28, Q9H204.
Regarding S518A, the “effect of a mutation on the interaction” value is listed as “increasing interaction”.
